Measurements as given in patent publication US20150197558A1 (published 2015).

What was measured:
Assay in all cases: ELISA, antigen coated
[1] = biological target: T1, IHF from Acinetobacter baumannii (Acinetobacter baumannii, UniProt A3M2B0 1-98)
T1 construct: also called Ab
T1 sequence: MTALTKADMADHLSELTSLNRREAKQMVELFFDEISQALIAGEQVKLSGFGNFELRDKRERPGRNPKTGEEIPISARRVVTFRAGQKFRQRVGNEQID

[2] = biological target: T2, IHF from Klebsiella pneumoniae (Klebsiella pneumoniae, UniProt A6TAI1 1-99)
T2 construct: also called IHF (Kp); K. pneumoniae
T2 sequence: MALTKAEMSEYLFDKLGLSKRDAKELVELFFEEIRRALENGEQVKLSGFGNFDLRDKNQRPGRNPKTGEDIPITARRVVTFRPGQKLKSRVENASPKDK

[3] = biological target: T3, IHF from Pseudomonas aeruginosa (Pseudomonas aeruginosa, UniProt Q51472 2-100)
T3 construct: also called IHF (Pa); P. aeruginosa; not shown: poly-histidine tag
T3 sequence: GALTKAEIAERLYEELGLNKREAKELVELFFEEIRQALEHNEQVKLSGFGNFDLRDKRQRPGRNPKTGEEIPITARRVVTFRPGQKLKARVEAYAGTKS

[4] = biological target: T4, IHF from Haemophilus influenzae (Haemophilus influenzae, UniProt P43723 1-96)
T4 construct: also called IHF (Hi); H. influenzae; not shown: poly-histidine tag
T4 sequence: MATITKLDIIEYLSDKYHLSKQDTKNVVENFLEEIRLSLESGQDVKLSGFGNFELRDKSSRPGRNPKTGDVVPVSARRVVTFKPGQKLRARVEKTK

Measured: binding result

B1: TRL1337 (antibody, V domains shown)
VH: QVQLLESGPGLVKPSETPSLTCTVSGGSIRSYYWSWIRQPPGKGLEWIGYIYYSGSTNYNPSLKSRVTISVDMSKNQFSLKLSSVTAADTAMYYCARVYGGSGSYDFDYWGQGTLVTVSS
VL: DIVLTQSPSASGSPGQSVTISCTGTSSDVGGYNYVSWYQQLPGKAPKLMIYEVTKRPSGVPDRFSGSKSGNTASLTVSGLQAEDEADYYCSSFAGSNNHVVFGGGTKLTVL
no binding: all assays above
